Here are results for two molecules from US20130004416A1 (published 2013).

The target of experiment [1] is T1, human IL-12 (human, UniProt P29459 23-219; P29460 23-328).
T1 sequence (looked up) 1: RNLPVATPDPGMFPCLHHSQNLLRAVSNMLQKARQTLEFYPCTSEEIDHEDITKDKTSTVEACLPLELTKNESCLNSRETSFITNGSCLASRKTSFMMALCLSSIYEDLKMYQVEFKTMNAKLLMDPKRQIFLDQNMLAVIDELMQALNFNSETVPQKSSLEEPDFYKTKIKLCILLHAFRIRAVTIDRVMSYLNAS
T1 sequence (looked up) 2: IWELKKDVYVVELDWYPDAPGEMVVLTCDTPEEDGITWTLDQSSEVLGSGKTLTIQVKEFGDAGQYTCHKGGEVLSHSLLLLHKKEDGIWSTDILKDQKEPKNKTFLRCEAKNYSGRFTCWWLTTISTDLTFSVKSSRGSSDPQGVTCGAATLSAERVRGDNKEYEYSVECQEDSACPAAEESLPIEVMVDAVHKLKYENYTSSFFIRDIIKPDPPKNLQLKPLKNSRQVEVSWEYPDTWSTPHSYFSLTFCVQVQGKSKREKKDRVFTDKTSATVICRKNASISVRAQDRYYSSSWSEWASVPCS
As to the kind of experiment: cell-based or functional assay.

Experiment [2] deals with T2, human IL-18 (human, UniProt Q14116 37-193). Nature of the experiment: cell-based or functional assay.
Experiment [3] has as its target T1, human IL-12. As to the kind of experiment: SPR (Biacore). (SPR reads the build-up and loss of mass on a sensor chip optically.)
Experiment [4] has as its target T2, human IL-18. Nature of the experiment: SPR (Biacore).

B1: DVD1812LL (DVD1812HC-LL / DVD1812LC-LL) (bispecific antibody)
heavy: not shown
light: EIVMTQSPATLSVSPGERATLSCRASESISSNLAWYQQKPGQAPRLFIYTASTRATDIPARFSGSGSGTEFTLTISSLQSEDFAVYYCQQYNNWPSITFGQGTRLEIKRTVAAPSVFIFPPQSVLTQPPSVSGAPGQRVTISCSGSRSNIGSNTVKWYQQLPGTAPKLLIYYNDQRPSGVPDRFSGSKSGTSASLAITGLQAEDEADYYCQSYDRYTHPALLFGTGTKVTVLG
With B1, in the experiment with human IL-12 [1], the “Potency (IC50, M), IL-12-induced IFN-γ production by PHA blast cells” value is 1.18e-10 M. Further, in the experiment with human IL-18 [2], the “Potency (IC50, M), KG-1 bioassay” value was 7.8e-11 M. For the same molecule, the figures for the Kd in the experiment with human IL-12 [3] and with human IL-18 [4] were 0.113 nM and 0.162 nM, respectively.

B2: DVD1812SL (DVD1812HC-SL / DVD1812LC-SL) (bispecific antibody)
chain 1: not shown
chain 2: EIVMTQSPATLSVSPGERATLSCRASESISSNLAWYQQKPGQAPRLFIYTASTRATDIPARFSGSGSGTEFTLTISSLQSEDFAVYYCQQYNNWPSITFGQGTRLEIKRTVAAPQSVLTQPPSVSGAPGQRVTISCSGSRSNIGSNTVKWYQQLPGTAPKLLIYYNDQRPSGVPDRFSGSKSGTSASLAITGLQAEDEADYYCQSYDRYTHPALLFGTGTKVTVLGTVAAPSVFIFPPSDEQLKSGTASVVCLLNNFYPREAKVQWKVDNALQSGNSQESVTEQDSKDSTYSLSSTLTLSKADYEKHKVYACEVTHQGLSSPVTKSFNRGEC
Consider B2, for which the “Potency (IC50, M), IL-12-induced IFN-γ production by PHA blast cells” value in the experiment with human IL-12 [1] is 3.66e-10 M. Besides, the “Potency (IC50, M), KG-1 bioassay” value with human IL-18 [2] amounted to 4e-11 M. Besides, the Kd is 1.82 nM with human IL-12 [3] and 0.191 nM with human IL-18 [4].

What is called Kd is the equilibrium constant for the complex coming apart. A lower Kd goes with tighter binding.
